Assay [1] concerns the target T1, FL4-06 B-m2-CL1+5-GCN4b (influenza B virus, UniProt P03461 6-574).
T1 chain: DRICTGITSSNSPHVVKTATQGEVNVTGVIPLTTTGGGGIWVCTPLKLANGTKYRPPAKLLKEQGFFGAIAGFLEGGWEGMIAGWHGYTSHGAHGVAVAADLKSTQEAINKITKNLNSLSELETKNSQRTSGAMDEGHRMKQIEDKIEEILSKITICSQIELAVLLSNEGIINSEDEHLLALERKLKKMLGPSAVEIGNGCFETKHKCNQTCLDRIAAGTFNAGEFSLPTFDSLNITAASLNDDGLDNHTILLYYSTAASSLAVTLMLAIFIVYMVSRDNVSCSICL
Kind of assay: FACS, transfected cells. (Flow cytometry measures light scatter and fluorescence of single cells or particles in a stream.)

The target of assay [2] is hemagglutinin of influenza virus A/Panama/2007/1999 (H3) (influenza A virus H3). Kind of assay: cell-based or functional assay.
The target of assay [3] is hemagglutinin of influenza virus A/EW/MPD411/07 (H6) (influenza A virus H6). The experiment in a line: cell-based or functional assay.
For assay [4], the target named is hemagglutinin of influenza virus A/EW/MPH571/08 (H8) (influenza A virus H8). The experiment in a line: cell-based or functional assay.
The target of assay [5] is hemagglutinin of influenza virus A/Brisbane/59/2007 (H1) (influenza A virus H1N1, UniProt B4URD6 18-565). The experiment in a line: cell-based or functional assay.
Assay [6] deals with hemagglutinin of influenza virus A/Brisbane/10/2007 (H3) (influenza A virus H3). Kind of assay: cell-based or functional assay.
Assay [7] concerns the target hemagglutinin of influenza virus A/Hong Kong/1073/99 (H9) (influenza A virus H9). Kind of assay: cell-based or functional assay.
Assay [8] has as its target hemagglutinin of influenza virus A/Hiroshima/52/2005 (H3) (influenza A virus H3). The experiment in a line: cell-based or functional assay.
The target of assay [9] is hemagglutinin of influenza virus A/WF/MPA 892/06 (H4) (influenza A virus H4). Kind of assay: cell-based or functional assay.
Assay [10] concerns the target hemagglutinin of influenza virus A/Env/MPU3156/05 (H2) (influenza A virus H2). The experiment in a line: cell-based or functional assay.
Assay [11] addresses hemagglutinin of influenza virus A/Ck/HK/SSP176/09 (H9) (influenza A virus H9). Kind of assay: cell-based or functional assay.
The target in assay [12] is hemagglutinin of influenza virus A/Chick/Germany/N/49 (H10) (influenza A virus H10). Kind of assay: cell-based or functional assay.
Assay [13] addresses hemagglutinin of influenza virus A/Hong Kong/1/68 (H3) (influenza A virus H3N2, UniProt Q91MA7 17-566). The experiment in a line: cell-based or functional assay.
The target of assay [14] is H1 FL HA A/Puerto Rico/8/1934 (influenza A virus H1N1, UniProt P03452 18-565). Kind of assay: FACS on HEK293F.
For assay [15], the target named is miniHA cluster1 (A/Brisbane/59/2007) (influenza A virus H1N1, UniProt A8C8J4 18-565). Kind of assay: FACS on HEK293F.
Assay [16] concerns the target H1 Full-length (A/Brisbane/59/2007) (influenza A virus H1N1, UniProt B4URD6 18-565). Kind of assay: FACS on HEK293F.
The target of assay [17] is miniHA cluster1+2+3+4 (A/Brisbane/59/2007) (influenza A virus H1N1, UniProt A8C8J4 18-565). The experiment in a line: FACS on HEK293F.
Assay [18] has as its target miniHA cluster1+2+3 (A/Brisbane/59/2007) (influenza A virus H1N1, UniProt A8C8J4 18-565). Kind of assay: FACS on HEK293F.
The target of assay [19] is miniHA cluster1+2 (A/Brisbane/59/2007) (influenza A virus H1N1, UniProt A8C8J4 18-565). The experiment in a line: FACS on HEK293F.
Assay [20] addresses miniHA cluster1+3 (A/Brisbane/59/2007) (influenza A virus H1N1, UniProt A8C8J4 18-565). Kind of assay: FACS on HEK293F.
Assay [21] has as its target H1-PR8-dH1 (influenza A virus H1N1, UniProt P03452 18-565). Kind of assay: FACS on HEK293F.
The target of assay [22] is mini3 cluster11 (A/Brisbane/59/2007) (influenza A virus H1N1, UniProt A8C8J4 18-565). The experiment in a line: FACS on HEK293F.
Assay [23] concerns the target mini1 cluster11 (A/Brisbane/59/2007) (influenza A virus H1N1, UniProt A8C8J4 18-565). The experiment in a line: FACS on HEK293F.
Assay [24] has as its target mini4 cluster11+5 (A/Brisbane/59/2007) (influenza A virus H1N1, UniProt A8C8J4 18-565). Kind of assay: FACS on HEK293F.
The target of assay [25] is mini2 cluster11+5 (A/Brisbane/59/2007) (influenza A virus H1N1, UniProt A8C8J4 18-565). Kind of assay: FACS on HEK293F.
For assay [26], the target named is mini2 cluster11 (A/Brisbane/59/2007) (influenza A virus H1N1, UniProt A8C8J4 18-565). Kind of assay: FACS on HEK293F.
In assay [27] the target is mini4 cluster11 (A/Brisbane/59/2007) (influenza A virus H1N1, UniProt A8C8J4 18-565). Kind of assay: FACS on HEK293F.
For assay [28], the target named is mini3 cluster11+5 (A/Brisbane/59/2007) (influenza A virus H1N1, UniProt A8C8J4 18-565). The experiment in a line: FACS on HEK293F.
Assay [29] addresses mini1 cluster11+5 (A/Brisbane/59/2007) (influenza A virus H1N1, UniProt A8C8J4 18-565). Kind of assay: FACS on HEK293F.

B1: CR9114 (antibody, V domains shown)
VH: QVQLVQSGAEVKKPGSSVKVSCKSSGGTSNNYAISWVRQAPGQGLDWMGGISPIFGSTAYAQKFQGRVTISADIFSNTAYMELNSLTSEDTAVYFCARHGNYYYYSGMDVWGQGTTVTVSS
VL: SYVLTQPPAVSGTPGQRVTISCSGSDSNIGRRSVNWYQQFPGTAPKLLIYSNDQRPSVVPDRFSGSKSGTSASLAISGLQSEDEAEYYCAAWDDSLKGAVFGGGTQLTVL
As to B1, in [1], the binding result is “no binding”. The “virus neutralization assay on MDCK cells, geomean IC50” value in assay [2] was 39.9 µg/mL; in assay [3] it was 10.5 µg/mL; in [4] it was 8.8 µg/mL; in [5] it was 2.6 µg/mL; in assay [6], 5.6 µg/mL; in assay [7], 4.4 µg/mL. For the same molecule, the “virus neutralization assay on MDCK cells, geomean IC50” value is 12.5 µg/mL in [8]; 0.8 µg/mL in [9]; 8.8 µg/mL in assay [10]; 6.3 µg/mL in assay [11]; 15.7 µg/mL in assay [12]; 19 µg/mL in assay [13].

B2: CR8057 (antibody, V domains shown)
VH: EVQLVESGGGLVQPGGSLRLSCAASGFTDSVIFMSWVRQAPGKGLECVSIIYIDDSTYYADSVKGRFTISRHNSMGTVFLEMNSLRPDDTAVYYCATESGDFGDQTGPYHYYAMDV
VL: QSALTQPASVSGSPGQSITISCTGSSGDIGGYNAVSWYQHHPGKAPKLMIYEVTSRPSGVSDRFSASRSGDTASLTVSGLQAEDEAHYYCCSFADSNILI
In the case of B2, the binding result in assay [14], in [15], in assay [16], in assay [17], in [18] and in [19] was “no binding (tested: 5 ug/ml)” each time. The binding result in assay [20], in assay [21], in assay [22], in assay [23], in assay [24] and in assay [25] was “no binding (tested: 5 ug/ml)” throughout. Moreover, the binding result in assay [26], in [27], in assay [28] and in assay [29] was “no binding (tested: 5 ug/ml)” in each case.

The values are drawn from patent publication US20160355553A1 (Janssen / Centocor, published 2016).
